Drawing on paper PMC11931385, “Structural and functional analysis of cancer-associated missense variants in the retinoblastoma protein pocket domain” (The Journal of Biological Chemistry, 2025), this text covers Kd for two molecules.

No end group written: not given here. TMR = tetramethyl rhodamine dye

Common to all, as to test: fluorescence polarisation; 25 °C; unlabeled Rb^P titrated against 1.5 nM TMR-E2F1^TD or 7.5 nM TMR-E7^LxCxE; 25 mM Tris pH 8.0, 200 mM NaCl, 1 mM DTT, 0.1% Tween-20; 2 min incubation; quadratic fit; apparent Kd for the variants, Kd for WT
Common to all, as to settings: both partners purified
A general note: In fluorescence polarisation assays a small probe gives low polarisation when free and higher when bound to something large.

Assay [1] addresses T1, Rb^P S474I (human, UniProt P06400 380-788, S474I).
T1 construct: also called variant 11
T1 sequence (looked up): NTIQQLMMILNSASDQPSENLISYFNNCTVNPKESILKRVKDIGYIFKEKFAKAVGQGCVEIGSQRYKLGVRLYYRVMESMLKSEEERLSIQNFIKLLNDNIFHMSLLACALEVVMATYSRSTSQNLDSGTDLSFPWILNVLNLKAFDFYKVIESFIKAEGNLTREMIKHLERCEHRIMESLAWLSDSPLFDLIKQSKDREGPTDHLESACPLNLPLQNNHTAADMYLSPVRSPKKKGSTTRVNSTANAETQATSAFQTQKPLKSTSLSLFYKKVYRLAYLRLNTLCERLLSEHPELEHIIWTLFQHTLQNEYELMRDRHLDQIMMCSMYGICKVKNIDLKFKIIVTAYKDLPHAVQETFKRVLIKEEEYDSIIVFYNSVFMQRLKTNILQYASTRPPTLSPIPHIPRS

In assay [2] the target is T2, Rb^P K548N (human, UniProt P06400 380-788, K548N).
T2 construct: also called variant 26
T2 sequence (looked up): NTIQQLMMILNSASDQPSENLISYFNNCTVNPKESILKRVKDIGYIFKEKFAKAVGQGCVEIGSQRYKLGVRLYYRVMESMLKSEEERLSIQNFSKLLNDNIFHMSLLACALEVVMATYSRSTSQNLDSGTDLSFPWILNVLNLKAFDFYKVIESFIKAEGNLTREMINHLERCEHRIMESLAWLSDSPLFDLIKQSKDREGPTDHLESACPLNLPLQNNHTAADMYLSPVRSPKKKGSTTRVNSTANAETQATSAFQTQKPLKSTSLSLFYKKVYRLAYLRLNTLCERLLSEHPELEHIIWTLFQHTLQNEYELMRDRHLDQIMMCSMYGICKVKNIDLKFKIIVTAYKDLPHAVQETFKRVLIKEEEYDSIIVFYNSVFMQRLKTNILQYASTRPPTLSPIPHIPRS

For assay [3], the target named is T3, Rb^P T687I (human, UniProt P06400 380-788, T687I).
T3 construct: also called variant 59
T3 sequence (looked up): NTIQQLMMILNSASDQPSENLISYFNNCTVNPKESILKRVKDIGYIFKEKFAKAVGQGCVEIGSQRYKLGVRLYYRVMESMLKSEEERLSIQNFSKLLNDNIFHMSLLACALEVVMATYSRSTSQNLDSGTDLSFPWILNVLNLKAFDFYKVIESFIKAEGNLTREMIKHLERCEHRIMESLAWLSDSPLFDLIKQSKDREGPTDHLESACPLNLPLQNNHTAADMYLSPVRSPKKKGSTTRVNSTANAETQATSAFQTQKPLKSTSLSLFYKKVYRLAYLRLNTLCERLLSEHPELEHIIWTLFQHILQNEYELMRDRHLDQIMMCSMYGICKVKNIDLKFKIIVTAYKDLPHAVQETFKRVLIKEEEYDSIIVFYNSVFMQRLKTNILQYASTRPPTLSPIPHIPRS

The target of assay [4] is T4, Rb^P H699P (human, UniProt P06400 380-788, H699P).
T4 construct: also called variant 63
T4 sequence (looked up): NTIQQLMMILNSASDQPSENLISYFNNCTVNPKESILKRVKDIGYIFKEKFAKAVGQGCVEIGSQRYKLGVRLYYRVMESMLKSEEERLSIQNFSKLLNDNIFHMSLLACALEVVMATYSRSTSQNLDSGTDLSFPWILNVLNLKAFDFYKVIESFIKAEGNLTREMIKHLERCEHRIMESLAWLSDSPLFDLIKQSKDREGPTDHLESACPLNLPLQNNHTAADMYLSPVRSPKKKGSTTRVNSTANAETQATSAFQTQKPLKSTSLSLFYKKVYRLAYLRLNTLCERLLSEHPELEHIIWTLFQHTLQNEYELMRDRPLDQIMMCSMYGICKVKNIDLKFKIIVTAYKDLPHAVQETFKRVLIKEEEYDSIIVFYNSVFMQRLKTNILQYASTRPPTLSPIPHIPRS

Assay [5] addresses T5, Rb^P R741H (human, UniProt P06400 380-788, R741H).
T5 construct: also called variant 69
T5 sequence (looked up): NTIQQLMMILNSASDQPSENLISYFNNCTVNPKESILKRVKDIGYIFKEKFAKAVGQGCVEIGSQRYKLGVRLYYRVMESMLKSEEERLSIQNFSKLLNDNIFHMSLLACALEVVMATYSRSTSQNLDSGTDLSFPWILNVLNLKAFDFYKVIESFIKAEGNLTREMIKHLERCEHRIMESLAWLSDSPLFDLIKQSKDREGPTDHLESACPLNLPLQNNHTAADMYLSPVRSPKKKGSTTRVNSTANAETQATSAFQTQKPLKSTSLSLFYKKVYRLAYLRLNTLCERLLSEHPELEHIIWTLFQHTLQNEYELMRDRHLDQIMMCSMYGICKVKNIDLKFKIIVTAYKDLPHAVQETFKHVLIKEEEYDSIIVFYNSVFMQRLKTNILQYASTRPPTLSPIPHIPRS

B1: TMR-E2F1^TD, peptide of the E2F1 transactivation domain (peptide)
peptide: {TMR}-GEGIRDLFDCDFGDLTPLD
notes: also called E2F^TD; source: synthetic peptide, bought: GenScript
Turning to B1, the Kd was determined as 364 nM in assay [1]; 133 nM in assay [2]; 20 nM in assay [3]; 35 nM in assay [4]; 21 nM in assay [5].

B2: TMR-E7^LxCxE, LxCxE peptide of the E7 oncoprotein from HPV (peptide)
peptide: DLYCYEQLN
modifications: also: TMR label, position not given here
notes: source: synthetic peptide, bought: GenScript
In the case of B2, the Kd in assay [1] turned out to be 7 nM; in assay [2], 6 nM; in assay [3] it was 13 nM; in assay [4], 6 nM; in assay [5], 18 nM.
